Reference: article PMC12455589, “Abundant bacterial nucleoid-associated protein H-NS limits plasmid transfer through mechanical modification of DNA”

Target: T1, H-NS (Escherichia coli, UniProt P0ACF8 1-137)
T1 sequence: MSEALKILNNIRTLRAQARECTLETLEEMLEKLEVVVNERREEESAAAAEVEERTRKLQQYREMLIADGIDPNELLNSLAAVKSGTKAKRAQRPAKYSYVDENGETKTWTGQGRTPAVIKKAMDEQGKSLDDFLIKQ
Experiment: EMSA; 0-80 ng/uL protein; 10 mM Mg2+; EMSA: 10 mM Tris-HCl pH 7.9, 125 mM KCl, 10 mM MgCl2, 0.1 mM DTT, 2.5% glycerol, 30 min, room temperature; bridging: 20 mM Tris-HCl pH 7.4, 150 mM NaCl, 1 mM DTT, 5% glycerol, 0.05% Tween 20, room temperature
Conditions: protein: recombinant; tags: His6 (N-terminal); chain copies: 2; blunt

B1: HBS dsDNA probe (P21/P22) (dsDNA)
DNA 1: TAATTATTATAACTAAAAGTTTCTTTAATAATAAAACGAATAACTTGCAGATTTGAAAT
DNA 2: ATTTCAAATCTGCAAGTTATTCGTTTTATTATTAAAGAAACTTTTAGTTATAATAATTA
- binding result: binds
